# Data taken from patent US12202907B2, “Nucleic acids encoding and methods of producing proteins comprising antibody chains” (Innate Pharma, priority 2018, dated 2025).
# How the values were obtained:
# [1] = target: T1, Human CD39-L3 (NTPDase3, ENTPD3) (Homo sapiens, UniProt O75355); assay: ELISA titration on CD39-L3; format: binding
# T1 sequence (O75355 1-529): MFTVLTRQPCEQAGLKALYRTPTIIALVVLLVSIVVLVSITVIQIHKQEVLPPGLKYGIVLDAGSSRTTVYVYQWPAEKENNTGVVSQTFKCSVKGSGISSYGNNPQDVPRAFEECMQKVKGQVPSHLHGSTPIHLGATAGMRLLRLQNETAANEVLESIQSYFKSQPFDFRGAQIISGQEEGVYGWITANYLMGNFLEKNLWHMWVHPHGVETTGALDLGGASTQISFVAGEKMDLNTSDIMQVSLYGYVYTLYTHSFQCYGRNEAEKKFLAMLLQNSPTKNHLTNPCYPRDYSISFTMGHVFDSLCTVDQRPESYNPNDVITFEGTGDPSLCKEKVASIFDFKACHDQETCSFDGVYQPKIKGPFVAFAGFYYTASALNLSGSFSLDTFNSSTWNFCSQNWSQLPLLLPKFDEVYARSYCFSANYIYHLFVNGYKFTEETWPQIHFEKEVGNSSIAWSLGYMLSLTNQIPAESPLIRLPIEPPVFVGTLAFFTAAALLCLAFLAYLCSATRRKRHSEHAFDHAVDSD
# Method: Antibody I-394 was tested for binding to recombinant human CD39 isoforms (Rec-huCD39 isoforms) having amino acid sequences shown below were coated in 96-well plate in PBS 1X at 500 ng/ml or 1 μg/ml at 4° C. overnight. Wells were washed in TBS Tween® 20 (polysorbate 20), and further saturated 2H at RT in TBS Blocking buffer. Dose range concentration of primary antibody was incubated in TBS blocking buffer for 2 h at RT. Wells were washed in TBS Tween® 20 (polysorbate 20). […] Optical density was measured on Enspire™ at OD=450.
# [2] = Aggregation temperature (thermal shift stability assay); format: physicochemical; conditions: human IgG1 with L234A/L235E/G237A/A330S/P331S
# Method: Antibodies mAb1-24 and prior art anti-CD39 antibody BY40, all produced as human IgG1 isotypes with L234A/L235E/G237A/A330S/P331S substitutions were tested for stability in the following reference formulation at a concentration of approximatively 7 mg/mL: pH 6.0; histidine buffer (10 mM); sucrose (200 mM); NaCl (50 mM); Polysorbate 80 (PS80) (0.2 g/L). The stability of the formulations was monitored in two storage conditions (at +5° C.±3° C. and at +40±3° C. For each study, 3 time points were performed: T0, T15D (15 days) and T1M (1 month). A freeze thaw (F/T) and a thermal shift stability assay (TSSA) were conducted for the format comparison. To perform F/T cycles, the samples were frozen at least 2 hours at −20° C. and thawed at least 1 hour at room temperature, the F/T cycle is repeated three times and samples are tested 24 h after the last Freeze/Thaw cycle. At each time point, the following tests were performed: • Particulate Matter (MFI) • Visual Inspection (Appearance) • Impurities (SE-HPLC) • Turbidity (400 nm) • Protein Concentration (280 nm) (performed with Nanodrop, Thermo Fisher Scientific Inc.)
# [3] = target: T2, CD39 mutants transfected in Hek-293T cells (Homo sapiens, UniProt P49961, E143A/N99A/Q96A/R147E); assay: Epitope mapping: binding to CD39 mutants by flow cytometry; conditions: mutant 5: Q96A, N99A, E143A, R147E
# T2 construct: expressed in transfected cells; host or cells: HEK293T
# T2 sequence (P49961 1-510 Q96A/N99A/E143A/R147E): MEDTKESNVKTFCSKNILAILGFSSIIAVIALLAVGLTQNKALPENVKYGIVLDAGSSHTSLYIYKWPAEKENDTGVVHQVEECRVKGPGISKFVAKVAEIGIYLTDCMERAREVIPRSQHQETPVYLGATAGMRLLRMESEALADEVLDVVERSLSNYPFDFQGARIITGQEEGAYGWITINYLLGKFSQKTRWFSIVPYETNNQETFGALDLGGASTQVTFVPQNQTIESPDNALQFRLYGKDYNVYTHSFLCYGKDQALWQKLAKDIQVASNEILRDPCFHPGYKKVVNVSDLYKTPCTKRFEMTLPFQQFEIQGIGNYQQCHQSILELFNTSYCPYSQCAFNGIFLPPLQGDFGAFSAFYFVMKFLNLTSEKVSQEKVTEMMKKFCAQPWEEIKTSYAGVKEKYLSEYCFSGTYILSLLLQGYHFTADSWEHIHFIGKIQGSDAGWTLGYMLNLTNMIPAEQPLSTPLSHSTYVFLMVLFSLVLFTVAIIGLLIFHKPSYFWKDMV
# Method: CD39 mutants were generated by PCR. The sequences amplified were run on agarose gel and purified using the Macherey Nagel PCR Clean-Up Gel Extraction kit (reference 740609). The purified PCR products generated for each mutant were then ligated into an expression vector, with the ClonTech InFusion system. The vectors containing the mutated sequences were prepared as Miniprep and sequenced. After sequencing, the vectors containing the mutated sequences were prepared as Midiprep using the Promega PureYield™ Plasmid Midiprep System. HEK293T cells were grown in DMEM medium (Invitrogen), transfected with vectors using Invitrogen's Lipofectamine 2000 and incubated at 37° C. in a CO2 incubator for 48 hours prior to testing for transgene expression. The targeted amino acid mutations in the table 1 below are shown using numbering of SEQ ID NO: 1.
# In order to define the epitopes of anti-CD39 antibodies, we designed CD39 mutants defined by substitutions of amino acids exposed at the molecular surface over the surface of CD39.
# Dose-ranges of I-394 (10-2.5-0.625-0.1563-0.0391-0.0098-0.0024-0.0006 μg/ml) are tested on the 20 generated mutants by flow cytometry. […] Mutant 5 contains amino acid substitutions at residues Q96, N99, E143 and R147. […]
substance,measurement,setting,value
"I-394: anti-CD39 antibody, VH SEQ ID NO: 6, VL SEQ ID NO: 7, human IgG1 Fc with L234A/L235E/G237A/A330S/P331S",binding to CD39-L3 in ELISA,[1],"not to any of the isoforms CD39-L1, -L2, -L3 or -L4"
same,Aggregation temperature (TAgg),[2],~70 °C
same,binding to cells expressing mutant 5 of CD39,[3],strongly reduced binding to mutant 5 (but with some residual binding to mutant 5)
